In patent US20240043859A1, “HERBICIDE-RESISTANT PROTEIN, AND GENE AND USE THEREOF” (QINGDAO KINGAGROOT CHEMICAL COMPOUND CO., LTD., priority 2020, published 2024):

Test: Chromogenic reaction of degrading herbicides in bacteria: 2,4-D
Type: cell-based, Escherichia coli
Settings: recombinant E. coli expressing the gene, 2,4-D added to the medium; red = phenols
Experimental: To transform the plasmids to be tested, an AAD12-expressing plasmid and a blank control plasmid pET15b were respectively transformed into the protein expression E. coli BL21(DE3) strains. A monoclone was selected and inoculated in a 10 ml centrifuge tube with 3 ml LB medium, and cultivated at 37° C., 200 rpm for 6-8 hours. The culture medium was added with 0.1 mM IPTG and 2 mM α-ketoglutaric acid, and then 0.5 mM 2,4-D. The temperature was switched to 28° C. and the cultivation continued overnight. In the next morning, 200 μL of each bacteria solution was taken and centrifuged to precipitate thallus, 180 μL of the supernatant was taken and added in a 96-well plate, and 20 μL of borate buffer of pH 10 was added. Then the mixture was added with 2 μL of 8% potassium ferricyanide and mixed well, followed by adding 2 μL of 2% 4-aminoantipyrine, and placed at room temperature for 5 min to observe the color and detect the A510 value.
The bacteria solution also appeared red when 2,4-D was directly added into the medium of AAD12-expressing bacteria, as shown in FIG. 1.
2,4-D was added into these bacteria solutions of AAD gene-expressing recombinant E. coli and cultivation was continued for color development.

B1: QYD63: AAD-like candidate enzyme; 100.00% identical to US20140179534-0002 (protein)
chain: MSSLELTPLHPLFAAEARGIDIRQPLSPSEVKQINAAMNRYAVLVWRGQPLTGQQQIDFAKAFGPLDLGLKKVFKRPERLEDERLIDISNVDAEGKVARRDSPKNLSNFANQLWHSDSSFQNPRAAYSMLHALVLPSWGGNTEFAELRAAYDALPERTRSEIEGLRAEHYALHTRILLGDEAYTDDQKKAIPPAVWPLAQTHPGSGRKLLFVGVHAREIIGWPVAEGRMFLSDLLEHATRREFVYTHEWQVGDLVMWDNRSTLHRGRRYDIGERRELRRTTIEDVPEATLMAA
modifications: Synthetic polypeptide, QYD63, D63
**Q.** With B1 as the molecule, how does the “Chromogenic reaction of degrading herbicides in bacteria: 2,4-D” value (from here on “Chromogenic reaction”) read?
**A.** Yes

B2: QYD68: AAD-like candidate enzyme; 100.00% identical to JP2018506305-0002 (protein)
chain: MSPAFDIAPLDATFGAVVTGVKLADLDDAGWLDLQAAWLQHALLIFPGQHLSNDQQITFAKRFGAIERIGGGDIVAISNVKADGTVRQHSPAEWDDMMKVIVGNMAWHADSTYMPVMAQGAVFSAEVVPAVGGRTCFADMRAAYDALDEATRALVHQRSARHSLVYSQSKLGHVQQAGSAYIGYGMDTTATPLRPLVKVHPETGRPSLLIGRHAHAIPGMDAAESERFLEGLVDWACQAPRVHAHQWAAGDVVVWDNRCLLHRAEPWDFKLPRVMWHSRLAGRPETEGAALV
modifications: Synthetic polypeptide, QYD68, D68
**Q.** With B2 as the molecule, how does the “Chromogenic reaction” value read?
**A.** Yes

B3: QYD70: AAD-like candidate enzyme; 100.00% identical to US20190017066-0048 (protein)
chain: MHAALTPLTNKYRHIDVQPLTGVLGAEITGVDLREPLDDSTWNEILDAFHTYQVIYFPGQAITNEQHIAFSRRFGPVDPVPILKSIEGYPEVQMIRREANESSRYIGDDWHADSTFLDAPPAAVVMRAIEVPEYGGDTGFLSMYSAWETLSPTMQATIEGLNVVHSATKVFGSLYQATNWRFSGTSVKVMDVDAGDRETVHPLVVTHPVTGRRALYCNQVYCQKIQGMTDAESKSLLQFLYEHATQFDFTCRVRWKKDQVLVWDNLCTMHRAVPDYAGKFRYLTRTTVAGDKPSR
modifications: Synthetic polypeptide, QYD70, D70
**Q.** With B3 as the molecule, how does the “Chromogenic reaction” value read?
**A.** Yes

B4: QYD66: AAD-like candidate enzyme; 100.00% identical to US20140194292-0002 (protein)
chain: MERHAMSNGKQIVRIEPLPGKTFGAVVTGVRLSELDEDTFSLLYREWLQYALLIFPAQYLTDSQQRDAASKFGCLVEGLEAVEISNLLPTGEVRAAPDDDMMKIIRGNMQWHQDNTYMPLQAKGALFSAKRVPSSGGETGFADMRAAWDALDTETQDRLANLSAYHSLAQSQKNLGEDVKSSDSEYIGYGLDVSTVPRRSLLKIHPETDRKTLAVGRHAFGVTGMAEQESTQFVSDLIDFAVADESRTYHHIWSEGDAILWDNRCLMHRACPWNFSQPRVMLHSRIAGDPSTEAALNS
modifications: Synthetic polypeptide, QYD66, D66
**Q.** With B4 as the molecule, how does the “Chromogenic reaction” value read?
**A.** Yes

B5: QYD65: AAD-like candidate enzyme; 100.00% identical to CN103013939-0002 (protein)
chain: MAIAIRQLHPHFVGEVSGVDLRHPLTRDEVAELQAAIDHYAVLVFHDQDIGDEQQLAFALNFGDREKARGGTVTKKEDYRLTTGLNDVSNLGKDGKPLPPDHRTHLFNLGNCLWHSDSSFRPIPAKYSILSARIVNPKGGNTEFADMRAAYDALDEQTKAEIDDLVSEHSLMYSRGSLGFLDYTDEEKKMFKPVRQRLVRTHPAHGRKSLYLSSHAGAVVGMSMPEGRLLLRDLTEHATQPEFVYVHKWRLHDLVMWDNRQTVHRVRRYDQSQPRDMRRATVAGTEPTVAQQAAE
modifications: Synthetic polypeptide, QYD65, D65
**Q.** For B5, which “Chromogenic reaction” value is on record?
**A.** Yes

B6: QYD69: AAD-like candidate enzyme; 100.00% identical to US20170211087-0004 (protein)
chain: MAQTTLQITPTGATLGATVTGVHLATLDDAGFAALHAAWLQHALLIFPGQHLSNDQQITFAKRFGAIERIGGGDIVAISNVKADGTVRQHSPAEWDDMMKVIVGNMAWHADSTYMPVMAQGAVFSAEVVPAVGGRTCFADMRAAYDALDEATRALVHQRSARHSLVYSQSKLGHVQQAGSAYIGYGMDTTATPLRPLVKVHPETGRPSLLIGRHAHAIPGMDAAESERFLEGLVDWACQAPRVHAHQWAAGDVVVWDNRCLLHRAEPWDFKLPRVMWHSRLAGRPETEGAALV
modifications: Synthetic polypeptide, QYD69, D69
**Q.** For B6, which “Chromogenic reaction” value is on record?
**A.** Yes

B7: QYD64: AAD-like candidate enzyme; 100.00% identical to US20180066275-0002 (protein)
chain: MSLQLKPLHPVFGAEASGLDLTRPLSDADVRAVNAAMNEHAVLVFRGQPLTAQQQLDFAKHFGPLDIGLKRVFKRPERLEDERLIDISNVDAQGNIARRDSPKNLSNFANQLWHSDSSFMNPRAAYSMLHCVIKPSWGGNTEFADLRHAYDTLDERTKAEIQDLKAEHFALHTRILLGDDAYTDDQKKEIPPAVWPLADTHPGSGRKVLFVGVHAREIIGWPVAEARMYLSDLLEHATRRENVYVHEWTPGDLVIWDNRSTLHRGRRYDITERRELRRTTINDTPEAMLMAA
modifications: Synthetic polypeptide, QYD64, D64
**Q.** For B7, which “Chromogenic reaction” value is on record?
**A.** Yes

B8: QYD71: AAD-like candidate enzyme; 100.00% identical to CN109456986-0002 (protein)
chain: MPFQVNQLHPIFAAEMFGCDILKPVTDETRNAVEDAMAKYAVLVIRDQAAASDEDQVRFAKAFGPLELPPDLGMSERTRPTRVHPKLYDVSNLDENGNLDKPDTLRRKFAKGNELFHTDSSFNDLPTKWSMLLAHVVTPTGGNTEFVDTRAAYDALSPSMKEQVEPLSVIHSLTYSRERGGLTGTTVFDRAFPPVTQPLVRTSASGRKALYIGAHAATVVGMDEAAGRTLLDKLISDASRPEYIYSHKWLPGDLVIWDNRCTMHRATEYAYMEDRRDLRRATINEFGEDRVGARPI
modifications: Synthetic polypeptide, QYD71, D71
**Q.** Which “Chromogenic reaction” value does the source give for B8 here?
**A.** Yes

B9: QYD61: AAD-like candidate enzyme; 100.00% identical to US20190024109-0292 (protein)
chain: MSVVANPLHPLFAAGVEDIDLREALGSTEVREIERLMDEKSVLVFRGQPLSQDQQIAFARNFGPLEGGFIKVNQRPSRFKYAELADISNVSLDGKVAQRDAREVVGNFANQLWHSDSSFQQPAARYSMLSAVVVPPSGGDTEFCDMRAAYDALPRDLQSELEGLRAEHYALNSRFLLGDTDYSEAQRNAMPPVNWPLVRTHAGSGRKFLFIGAHASHVEGLPVAEGRMLLAELLEHATQREFVYRHRWNVGDLVMWDNRCVLHRGRRYDISARRELRRATTLDDAVV
modifications: Synthetic polypeptide, QYD61, D61
**Q.** With B9 as the molecule, how does the “Chromogenic reaction” value read?
**A.** Yes

B10: QYD60: AAD-like candidate enzyme; 100.00% identical to US20160002662-0002 (protein)
chain: MSPAFDIAPLDATFGAVVTGVKLADLDDAGWLDLQAAWLEYALLVFPDQHLTREQQIAFARRFGPLEFEMAAISNVRPDGSLRVESDNDDMMKILKGNMGWHADSTYMPVQAKGAVFSAEVVPSVGGQTGFADMRAAYDALDEDLKARVETLQARHSLHYSQSKLGHQTKAADGEYSGYGLHDGPVPLRPLVKIHPETGRKSLLIGRHAHAIPGLEPAESERLLQQLIDFACQPPRIYHHDWAPGDAVLWDNRCLLHQATPWDMTQKRIMWHSRIAGDPASETALAH
modifications: Synthetic polypeptide, QYD60, D60
**Q.** With B10 as the molecule, how does the “Chromogenic reaction” value read?
**A.** Yes

B11: QYD67: AAD-like candidate enzyme; 100.00% identical to US20180244732-0002 (protein)
chain: MSPAFDIAPLDATFGAVVTGVHLATLDDAGFAALHAAWLQHALLIFPGQHLSNDQQITFAKRFGAIERIGGGDIVAISNVKADGTVRQHSPAEWDDMMKVIVGNMAWHADSTYMPVMAQGAVFSAEVVPAVGGRTCFADMRAAYDALDEATRALVHQRSARHSLVYSQSKLGHVQQAGSAYIGYGMDTTATPLRPLVKVHPETGRPSLLIGRHAHAIPGMDAAESERFLEGLVDWACQAPRVHAHQWAAGDVVVWDNRCLLHRAEPWDFKLPRVMWHSRIAGDPASETALAH
modifications: Synthetic polypeptide, QYD67, D67
**Q.** For B11, which “Chromogenic reaction” value is on record?
**A.** Yes
